Target: T1, biotinylated CD59 (Homo sapiens, UniProt P13987)
T1 construct: Recombinant soluble human CD59 with an additional C-terminal cysteine residue
T1 sequence (P13987 26-102 limits assumed): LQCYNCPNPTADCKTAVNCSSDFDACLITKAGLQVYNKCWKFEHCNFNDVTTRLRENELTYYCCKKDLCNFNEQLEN
Experiment: mRNA-display cyclic peptide screen against CD59-biotin, NGS abundance after 6th selection round
Conditions: for Percentage Seq I: counts normalised by total counts of sample Seq I; for Percentage Seq I / Percentage Seq II: percentage of the pool; for Percentage Seq I / Percentage Seq II / Percentage Average / Percentage of the pool, averaged across the two sequencing samples / Percentage of the pool, Seq I / Percentage of the pool, Seq II: sheet R6; for Percentage Seq II: counts normalised by total counts of sample Seq II; for Percentage Average: percentage of the pool averaged across the two sequencing samples; for Counts Seq I / Counts Seq II: raw NGS counts of peptide sequence; for Counts Seq I: sequencing sample Seq I; for Counts Seq I / Counts Seq II / Counts (raw counts for peptide sequence), Seq I / Counts (raw counts for peptide sequence), Seq II: sheet R6 (6th selection round); for Counts Seq II: sequencing sample Seq II; for Counts (raw counts for peptide sequence), Seq I: NGS sample Seq I; for Counts (raw counts for peptide sequence), Seq II: NGS sample Seq II; for Percentage of the pool, averaged across the two sequencing samples: average of Seq I and Seq II; for Percentage of the pool, Seq I: counts normalised by total counts of NGS sample Seq I; for Percentage of the pool, Seq II: counts normalised by total counts of NGS sample Seq II
Summary of the method: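 Peptide–mRNA fusions were made by in vitro translation with a customised PURE express kit. The kit lacked release factor 1 and methionine and was supplemented with […] initiator tRNA carrying N-chloroacetyl-d-tyrosine. Thioether macrocycles were formed, then enriched and amplified over iterative rounds on CD59-biotin immobilised on streptavidin beads. NGS read counts per sequence were recorded after the 6th selection round.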

Sequence	Percentage Seq I [%]	Percentage Seq II [%]	Percentage Average [%]	Counts Seq I	Counts Seq II	Counts (raw counts for peptide sequence), Seq I	Counts (raw counts for peptide sequence), Seq II	Percentage of the pool, averaged across the two sequencing samples [%]	Percentage of the pool, Seq I [%]	Percentage of the pool, Seq II [%]
IATGSKLYAKG	0.033	0.046	0.040	145	20					
IIRGNRLTKYE	0.020	0.026	0.023	86	11					
ILGSRDTIKYW	0.118	0.167	0.142	515	72					
IQSGSQSWSRG	0.037	0.035	0.036	164	15					
ISGGRNWRAG						65	6	0.014	0.015	0.014
ISRGDARYTWG	0.019	0.023	0.021	83	10					
ISWGNGSLAFY	0.147	0.116	0.132	643	50					
ISYGDRSYTYY	0.106	0.121	0.113	463	52					
ITRGSNIYAYG						79	6	0.016	0.018	0.014
KWGSSFFTLYRV						49	4	0.010	0.011	0.009
LAWGNRQIQYY						78	6	0.016	0.018	0.014
LCAENPLRPR	0.075	0.077	0.076	329	33					
LCSVRGSNDWI	0.073	0.074	0.074	320	32					
LCYVKGSKDFT	0.027	0.019	0.023	120	8					
LCYVKGSKNFT	0.088	0.095	0.092	385	41					
LGGRGCFRPCSAAAAAAARTGGG	0.050	0.042	0.046	220	18					
LKPNGRCLPKV	0.272	0.283	0.277	1189	122					
LLGARDYVRLWH						41	7	0.013	0.009	0.016
LLGSSSYVKFWY	0.253	0.265	0.259	1105	114					
LLGTRDYVRLWH	0.144	0.139	0.142	630	60					
LNPQGHCLLKL						55	8	0.016	0.013	0.019
LQPPDRSCLPKI	0.029	0.030	0.029	125	13					
LRGSYDYQLYFG	0.013	0.023	0.018	57	10					

Sequence	Percentage Seq I [%]	Percentage Seq II [%]	Percentage Average [%]	Counts Seq I	Counts Seq II	Counts (raw counts for peptide sequence), Seq I	Counts (raw counts for peptide sequence), Seq II	Percentage of the pool, averaged across the two sequencing samples [%]	Percentage of the pool, Seq I [%]	Percentage of the pool, Seq II [%]
LVRGDLYSVLG						85	7	0.018	0.019	0.016
LVTGNRDHTRG	0.023	0.030	0.027	100	13					
LWGAANYLKVIY	0.046	0.023	0.035	201	10					
LWGTHSYIYYRP	0.482	0.490	0.486	2109	211					
LWGTHSYTYYRP						60	4	0.011	0.014	0.009
LWGTHSYVYYRP						46	7	0.013	0.011	0.016
LWGTRSFTLVRS						64	5	0.013	0.015	0.012
LWWSDFYLCVVVRQRQRQLGRGAE						65	7	0.016	0.015	0.016
LYGNRDYSFYRP	0.162	0.169	0.166	707	73					
LYSHPRSLCSFS	0.082	0.091	0.086	357	39					
NSCPDWVRGSRT	0.229	0.262	0.246	1002	113					
NTAWGNVAVAYF	0.042	0.030	0.036	183	13					
NYVERLCTSG						68	5	0.014	0.016	0.012
PAWGNRQIQYY						58	3	0.010	0.013	0.007
PFAKRVAAQGGC						24	6	0.010	0.00549	0.014
PWTWGNRSSVRG						49	10	0.017	0.011	0.023
QFAHRISSCAS	0.032	0.030	0.031	139	13					
QPFWGCRTVAYS	0.033	0.049	0.041	144	21					
QWNRWYGIDEL	0.075	0.070	0.072	329	30					
QWNRWYGIDER	0.021	0.023	0.022	94	10					
QWNRWYGMDEL	0.284	0.260	0.272	1243	112					
QWNRWYGMDER	0.084	0.097	0.091	369	42					
RAWGNRYIAYY	0.027	0.030	0.029	119	13					

Source: publication PMC12207370, “Macrocyclic Peptide Probes for Immunomodulatory Protein CD59: Potent Modulators of Bacterial Toxin Activity and Antibody‐Dependent Cytotoxicity” (Angewandte Chemie (International Ed. in English), 2025)
